Measurements: patent publication US20040043378

Biological target: T1, wild type HIV-1 Tat protein, FLAG-tagged, expressed in cells
T1 chain: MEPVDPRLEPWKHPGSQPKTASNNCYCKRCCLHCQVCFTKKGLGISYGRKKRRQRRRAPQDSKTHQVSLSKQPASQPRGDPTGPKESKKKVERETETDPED

B1: P/CAF (p300/CBP-associated factor), HA-tagged, expressed in cells (protein)
chain: MSEAGGAGPGGCGAGAGAGAGPGALPPQPAALPPAPPQGSPCAAAAGGSGACGPATAVAAAGTAEGPGGGGSARIAVKKAQLRSAPRAKKLEKLGVYSACKAEESCKCNGWKNPNPSPTPPRADLQQIIVSLTESCRSCSHALAAHVSHLENVSEEEMNRLLGIVLDVEYLFTCVHKEEDADTKQVYFYLFKLLRKSILQRGKPVVEGSLEKKPPFEKPSIEQGVNNFVQYKFSHLPAKERQTIVELAKMFLNRINYWHLEAPSQRRLRSPNDDISGYKENYTRWLCYCNVPQFCDSLPRYETTQVFGRTLLRSVFTVMRRQLLEQARQEKDKLPLEKRTLILTHFPKFLSMLEEEVYSQNSPIWDQDFLSASSRTSQLGIQTVINPPPVAGTISYNSTSSSLEQPNAGSSSPACKASSGLEANPGEKRKMTDSHVLEEAKKPRVMGDIPMELINEVMSTITDPAAMLGPETNFLSAHSARDEAARLEERRGVIEFHVVGNSLNQKPNKKILMWLVGLQNVFSHQLPRMPKEYITRLVFDPKHKTLALIKDGRVIGGICFRMFPSQGFTEIVFCAVTSNEQVKGYGTHLMNHLKEYHIKHDILNFLTYADEYAIGYFKKQGFSKEIKIPKTKYVGYIKDYEGATLMGCELNPRIPYTEFSVIIKKQKEIIKKLIERKQAQIRKVYPGLSCFKDGVRQIPIESIPGIRETGWKPSGKEKSKEPRDPDQLYSTLKSILQQVKSHQSAWPFMEPVKRTEAPGYYEVIRFPMDLKTMSERLKNRYYVSKKLFMADLQRVFTNCKEYNAAESEYYKCANILEKFFFSKIKEAGLIDK
Superinduction of Tat transactivation activity: as much as a 30-fold increase upon P/CAF stimulation
